Each block holds one binder with its values, some of them ahead of it.
Key:
human serpinB11 = target: T1, human serpinB11 (human, UniProt Q96P15 1-392); test: Luminex bead assay, beads coated with human serpinB11, background (Gfp and Scgn beads) subtracted
T1 construct: Luminex antigen captured from a 293 cell lysate; not shown: V5-His tag of the pcDNA3.1 Directional V5-His-TOPO vector
T1 sequence (looked up): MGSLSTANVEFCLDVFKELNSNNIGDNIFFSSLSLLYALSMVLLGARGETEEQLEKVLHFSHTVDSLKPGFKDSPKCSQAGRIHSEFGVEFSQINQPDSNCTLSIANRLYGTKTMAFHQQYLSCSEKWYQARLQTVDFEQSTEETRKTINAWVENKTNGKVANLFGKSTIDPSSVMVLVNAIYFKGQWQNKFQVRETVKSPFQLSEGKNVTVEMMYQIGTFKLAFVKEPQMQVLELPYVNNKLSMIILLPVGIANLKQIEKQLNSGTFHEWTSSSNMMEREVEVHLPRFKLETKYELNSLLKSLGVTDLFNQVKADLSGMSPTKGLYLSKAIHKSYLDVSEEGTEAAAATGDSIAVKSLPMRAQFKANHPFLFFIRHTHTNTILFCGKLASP
Experimental: (§1) The latter was determined as the average antibody binding to Luminex beads coated with Gfp and Scgn control antigens. Similar data were obtained for antigen binding of Fab fragments of these antibodies (data not shown).
(§2) Luminex assay. Luminex-based technology was used to measure serpinB13 AA in human samples. Initially, the Luminex beads were precoated with serpinB13, Gfp and Scgn, using precleared lysates of 293 cells that had been transfected with individual cDNAs. Biotinylated mouse anti-human K and 2 chain mAbs (BD Biosciences) (dilution 1:300) and streptavidin (Invitrogen) (dilution 1:200) were used as secondary reagents to measure human serum binding activity to individual antigens. The data were expressed as fluorescence intensity (F.I.) due to serum binding activity in the presence of beads precoated with serpinB13 and after subtracting the average F.I. due to serum binding activity in the presence of beads precoated with control proteins, Gfp and Scgn (e.g. F.I.^B13-[F.I.^GFP+F.I.^Segn]/2). The samples were evaluated based on the level of F.I. and the degree of inhibition of binding to serpin-B13 coated beads with soluble serpinB13 (2.5 μg/mL), compared with the bovine serum albumin (BSA). […] All samples were run blind on three independent occasions. Subjects with serum samples that produced a positive results three times were considered positive. Subjects with serum samples that produced a negative result on at least one occasion were considered negative.
(§3) To determine whether anti-serpin activity is specific, binding of three human recombinant antibodies to serpinB13 was examined for potential cross-reactivity with other clade B serpins. Binding to the beads conjugated with Gfp and Scgn was used to subtract the background and the assay was developed using the same reagents as those described above for measuring serpinB13 AA in serum samples.

[1] = target: T2, recombinant human serpinB13 (human, UniProt Q9UIV8 1-391); test: Luminex bead assay, beads coated with human serpinB13, antibody at 1.0 µg/mL, background (mean of Gfp and Scgn beads) subtracted
T2 construct: The baculovirus-made protein (GenScript) was used for panning, ELISA and the cathepsin L assay; In the Luminex assay human serpinB13 was V5-His tagged and came from 293 cell lysates; also called rhB13
T2 sequence (looked up): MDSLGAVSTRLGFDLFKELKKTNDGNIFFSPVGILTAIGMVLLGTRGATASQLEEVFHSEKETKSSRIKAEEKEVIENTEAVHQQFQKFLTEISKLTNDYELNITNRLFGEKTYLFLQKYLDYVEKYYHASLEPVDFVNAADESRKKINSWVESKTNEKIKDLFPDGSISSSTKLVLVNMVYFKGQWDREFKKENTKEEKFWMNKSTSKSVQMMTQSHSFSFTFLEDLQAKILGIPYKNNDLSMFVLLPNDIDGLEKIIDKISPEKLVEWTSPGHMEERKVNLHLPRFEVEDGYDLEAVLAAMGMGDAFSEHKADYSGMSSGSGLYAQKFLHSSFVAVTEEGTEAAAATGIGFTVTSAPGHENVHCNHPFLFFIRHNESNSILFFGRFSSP
Experimental: as §1, §2, §3

binding result (human serpinB11): no binding (tested: 1.0 µg/mL)
binding result [1]: binds
B1: recombinant fully human anti-serpinB13 antibody Clone 2 (antibody, human IgG1, kappa, V domains shown)
VH: QMQLVQSGGGVVRPGGSLRLSCAASGFTFDDYGMSWVRQAPGKGLEWVSGINWNGGSTGYADSVKGRFTISRDNAKNSLYLQMNSLRAEDTALYYCARESSMTTVTTYLLREVGVGLDFDYWGQGTLVTVSS
VL: ETTLTQSPGTLSLSPGERATLSCRASQTVSGSYLAWYQQKPGQPPRLLIYGASSRATGIPDRFSGSGSGTDFTLTISRLEPEDFAVYYCQDYGSSRTFGQGTKVELKR
notes: also called mAb2; CLONE2-H(m1) / CLONE2-L(m1)

binding result (human serpinB11): no binding (tested: 1.0 µg/mL)
binding result [1]: binds
B2: recombinant fully human anti-serpinB13 antibody Clone 3 (antibody, human IgG1, kappa, V domains shown)
VH: QVQLQQWGAGLLKPSETLSLTCAVYGGSFSGYYWSWIRQPPGKGLEWIGEINHSGSTNYNPSLKSRVTISVDTSKNQFSLKLSSVTAADTAVYYCARRYCSGGSCYLVGTGSELDYWGQGTLVTVSS
VL: DIQMTQSPSTLSASVGDRVTITCRASQSISSWLAWYQQKPGKAPKLLIYKASSLEIGVPSRFSGSGYGTEFTLTISSLQPDDFATYYCLQYSTHSTFGQGTRVEIKR
notes: also called mAb3; CLONE3-H(m1) / CLONE3-L(m1)

binding result (human serpinB11): no binding (tested: 1.0 µg/mL)
binding result [1]: binds
B3: recombinant fully human anti-serpinB13 antibody Clone 1 (antibody, human IgG1, kappa, V domains shown)
VH: QVQLQESGGGVVQPGRSLRLSCAASGFTFSSYGMHWVRQAPGKGLEWVAVISYDGSNKYYADSVKGRFTISRDNSKNTLYLQMNSLRAEDTAVYYCARDLGAVIAVAGTSTPYNWFDPWGQGTLVTVSS
VL: DVVMTQSPLSLPVTPGEPASISCRSRQSLLHSNGHNYLGWYLQKPGQSPQLLIYLASIRASGIPDRFSGSGSGTDFTLKISRVEAEDVGVYYCMQALQTPYTFGQGTKLEIKR
notes: also called mAb1; mAbs1

Source: patent US20260116996A1 (REGENTS OF THE UNIVERSITY OF MINNESOTA, published 2026)
